Experimental data from patent US8389575B2, “Control of enzymatic peracid generation” (E.I. du Pont de Nemours and Company, priority 2008, dated 2013).

What was measured:
[1] = Peracetic acid production and reaction pH over time, Thermotoga maritima MSB8 perhydrolase, selection of buffer, reactant and perhydrolase concentrations; assay type: biochemical; settings: triacetin 100 mM
Method: Reactions (10 mL total volume) containing triacetin (100 mM), hydrogen peroxide (100 mM or 250 mM) and heat-treated, centrifuged cell extract supernatant (35 to 100 μg total heat-treated extract protein/mL, prepared as described in Example 13) prepared from an E. coli transformant expressing perhydrolase from Thermotoga maritima MSB8 (KLP18/pSW207) in sodium citrate (50 mM, pH 6.5) buffer, or in sodium bicarbonate buffer (1 mM to 5 mM, initial pH as indicated in Table 12), or in water without added buffer were run at 25° C. A control reaction for each reaction condition was run to determine the concentration of peracetic acid produced by chemical perhydrolysis of triacetin by hydrogen peroxide in the absence of added extract protein. Determination of the concentration of peracetic acid in the reaction mixtures was performed according to the method described by Karst et al., supra. The peracetic acid concentration produced at predetermined reaction times is listed in Table 11, and the corresponding reaction pH at each reaction time is listed in Table 12.

[2] = Peracetic acid production by Thermotoga maritima MSB8 perhydrolase, control by bicarbonate buffer concentration; assay type: biochemical; settings: 100 mM triacetin
Method: A cell extract of a transformant expressing perhydrolase from Thermotoga maritima MSB8 (KLP18/pSW207) was prepared by passing a suspension of cell paste (20 wt % wet cell weight) in 0.05 M potassium phosphate buffer (pH 7.0) containing dithiothreitol (1 mM) twice through a French press having a working pressure of 16,000 psi (˜110 MPa). The crude extract was then centrifuged at 20,000×g to remove cellular debris, producing a clarified cell extract that was assayed for total soluble protein (Bicinchoninic Acid Kit for Protein Determination, Sigma Aldrich catalog #BCA1-KT). The clarified extract was heated for 20 min at 75° C., followed immediately by cooling in an ice/water bath. The resulting mixture was centrifuged to remove precipitated protein, and the supernatant collected and assayed for total soluble protein as before. […] The supernatant was frozen in dry ice and stored at −80° C.
Reactions (2 mL total volume) containing triacetin, hydrogen peroxide and heat-treated, centrifuged cell extract supernatant (prepared as described above) were run at 25° C. using sodium bicarbonate buffer concentrations listed in Tables 9 and 10. A control reaction for each reaction condition was run to determine the concentration of peracetic acid produced by chemical perhydrolysis of triacetin by hydrogen peroxide in the absence of added extract protein. Determination of the concentration of peracetic acid in the reaction mixtures was performed according to the method described by Karst et al., supra. The peracetic acid concentrations produced in 1 min, 5 min and 30 min using either 250 mM or 100 mM hydrogen peroxide are listed in Table 9 and Table 10.

[3] = bicarbonate, 1 mM, H2O2 100 mM, total protein 75 μg/mL
[4] = bicarbonate, 1 mM, H2O2 100 mM, total protein 100 μg/mL
[5] = bicarbonate, 1 mM, H2O2 250 mM, total protein 35 μg/mL
[6] = bicarbonate, 1 mM, H2O2 250 mM, total protein 50 μg/mL
[7] = bicarbonate, 2.5 mM, H2O2 100 mM, total protein 50 μg/mL
[8] = bicarbonate, 5 mM, H2O2 100 mM, total protein 50 μg/mL
[9] = citrate, 50 mM, H2O2 100 mM, total protein 50 μg/mL
[10] = water (no buffer), H2O2 250 mM, total protein 75 μg/mL
[11] = water (no buffer), H2O2 250 mM, total protein 100 μg/mL

B1: Thermotoga maritima MSB8 perhydrolase: acetyl xylan esterase with perhydrolase activity from Thermotoga maritima MSB8 (SEQ ID NO: 16), cell extract of E. coli KLP18/pSW207 (protein, listed as Thermotoga maritima)
chain: MAFFDLPLEELKKYRPERYEEKDFDEFWEETLAESEKFPLDPVFERMESHLKTVEAYDVTFSGYRGQRIKGWLLVPKLEEEKLPCVVQYIGYNGGRGFPHDWLFWPSMGYICFVMDTRGQGSGWLKGDTPDYPEGPVDPQYPGFMTRGILDPRTYYYRRVFTDAVRAVEAAASFPQVDQERIVIAGGSQGGGIALAVSALSKKAKALLCDVPFLCHFRRAVQLVDTHPYAEITNFLKTHRDKEEIVFRTLSYFDGVNFAARAKIPALFSVGLMDNICPPSTVFAAYNYYAGPKEIRIYPYNNHEGGGSFQAVEQVKFLKKLFEKG
PAA (ppm), 1 min [1, 3]: 434 ppm | PAA (ppm), 5 min [1, 3]: 494 ppm | PAA (ppm), 30 min [1, 3]: 608 ppm | PAA (ppm), 2 h [1, 3]: 673 ppm | PAA (ppm), 18 h [1, 3]: 576 ppm | PAA (ppm), 1 min [1, 4]: 449 ppm | PAA (ppm), 5 min [1, 4]: 667 ppm | PAA (ppm), 30 min [1, 4]: 643 ppm | PAA (ppm), 2 h [1, 4]: 703 ppm | PAA (ppm), 18 h [1, 4]: 613 ppm | PAA (ppm), 1 min [1, 5]: 467 ppm | PAA (ppm), 5 min [1, 5]: 1047 ppm | PAA (ppm), 30 min [1, 5]: 1041 ppm | PAA (ppm), 2 h [1, 5]: 1014 ppm | PAA (ppm), 18 h [1, 5]: 917 ppm | PAA (ppm), 1 min [1, 6]: 624 ppm | PAA (ppm), 5 min [1, 6]: 1060 ppm | PAA (ppm), 30 min [1, 6]: 1090 ppm | PAA (ppm), 2 h [1, 6]: 1063 ppm | PAA (ppm), 18 h [1, 6]: 1021 ppm | PAA (ppm), 1 min [1, 7]: 256 ppm | PAA (ppm), 5 min [1, 7]: 722 ppm | PAA (ppm), 30 min [1, 7]: 976 ppm | PAA (ppm), 2 h [1, 7]: 887 ppm | PAA (ppm), 18 h [1, 7]: 855 ppm | PAA (ppm), 1 min [1, 8]: 410 ppm | PAA (ppm), 5 min [1, 8]: 1088 ppm | PAA (ppm), 30 min [1, 8]: 1496 ppm | PAA (ppm), 2 h [1, 8]: 1423 ppm | PAA (ppm), 18 h [1, 8]: 1419 ppm | PAA (ppm), 1 min [1, 9]: 409 ppm | PAA (ppm), 5 min [1, 9]: 892 ppm | PAA (ppm), 30 min [1, 9]: 2001 ppm | PAA (ppm), 2 h [1, 9]: 2254 ppm | PAA (ppm), 18 h [1, 9]: 1937 ppm | PAA (ppm), 1 min [1, 10]: 512 ppm | PAA (ppm), 5 min [1, 10]: 535 ppm | PAA (ppm), 30 min [1, 10]: 533 ppm | PAA (ppm), 2 h [1, 10]: 472 ppm | PAA (ppm), 18 h [1, 10]: 448 ppm | PAA (ppm), 1 min [1, 11]: 576 ppm | PAA (ppm), 5 min [1, 11]: 668 ppm | PAA (ppm), 30 min [1, 11]: 654 ppm | PAA (ppm), 2 h [1, 11]: 618 ppm | PAA (ppm), 18 h [1, 11]: 543 ppm | PAA (ppm), 1 min ([2]; NaHCO3 0 mM, initial pH 5.0, 1 min, 100 mM H2O2, 50 μg/mL heated extract total protein): 125 ppm | PAA (ppm), 1 min ([2]; NaHCO3 0 mM, initial pH 5.0, 1 min, 250 mM H2O2, 50 μg/mL heated extract total protein): 233 ppm | PAA (ppm), 5 min ([2]; NaHCO3 0 mM, initial pH 5.0, 5 min, 100 mM H2O2, 50 μg/mL heated extract total protein): 121 ppm | PAA (ppm), 5 min ([2]; NaHCO3 0 mM, initial pH 5.0, 5 min, 250 mM H2O2, 50 μg/mL heated extract total protein): 290 ppm | PAA (ppm), 30 min ([2]; NaHCO3 0 mM, initial pH 5.0, 30 min, 100 mM H2O2, 50 μg/mL heated extract total protein): 105 ppm | PAA (ppm), 30 min ([2]; NaHCO3 0 mM, initial pH 5.0, 30 min, 250 mM H2O2, 50 μg/mL heated extract total protein): 289 ppm | PAA (ppm), 1 min ([2]; NaHCO3 1.0 mM, initial pH 6.0, 1 min, 100 mM H2O2, 50 μg/mL heated extract total protein): 238 ppm | PAA (ppm), 1 min ([2]; NaHCO3 1.0 mM, initial pH 6.0, 1 min, 250 mM H2O2, 50 μg/mL heated extract total protein): 690 ppm | PAA (ppm), 5 min ([2]; NaHCO3 1.0 mM, initial pH 6.0, 5 min, 100 mM H2O2, 50 μg/mL heated extract total protein): 388 ppm | PAA (ppm), 5 min ([2]; NaHCO3 1.0 mM, initial pH 6.0, 5 min, 250 mM H2O2, 50 μg/mL heated extract total protein): 980 ppm | PAA (ppm), 30 min ([2]; NaHCO3 1.0 mM, initial pH 6.0, 30 min, 100 mM H2O2, 50 μg/mL heated extract total protein): 361 ppm | PAA (ppm), 30 min ([2]; NaHCO3 1.0 mM, initial pH 6.0, 30 min, 250 mM H2O2, 50 μg/mL heated extract total protein): 981 ppm | PAA (ppm), 1 min ([2]; NaHCO3 2.5 mM, initial pH 6.5, 1 min, 100 mM H2O2, 50 μg/mL heated extract total protein): 319 ppm | PAA (ppm), 1 min ([2]; NaHCO3 2.5 mM, initial pH 6.5, 1 min, 250 mM H2O2, 50 μg/mL heated extract total protein): 817 ppm | PAA (ppm), 5 min ([2]; NaHCO3 2.5 mM, initial pH 6.5, 5 min, 100 mM H2O2, 50 μg/mL heated extract total protein): 755 ppm | PAA (ppm), 5 min ([2]; NaHCO3 2.5 mM, initial pH 6.5, 5 min, 250 mM H2O2, 50 μg/mL heated extract total protein): 1758 ppm | PAA (ppm), 30 min ([2]; NaHCO3 2.5 mM, initial pH 6.5, 30 min, 100 mM H2O2, 50 μg/mL heated extract total protein): 710 ppm | PAA (ppm), 30 min ([2]; NaHCO3 2.5 mM, initial pH 6.5, 30 min, 250 mM H2O2, 50 μg/mL heated extract total protein): 1748 ppm | PAA (ppm), 1 min ([2]; NaHCO3 5.0 mM, initial pH 6.5, 1 min, 100 mM H2O2, 50 μg/mL heated extract total protein): 330 ppm | PAA (ppm), 1 min ([2]; NaHCO3 5.0 mM, initial pH 6.5, 1 min, 250 mM H2O2, 50 μg/mL heated extract total protein): 735 ppm | PAA (ppm), 5 min ([2]; NaHCO3 5.0 mM, initial pH 6.5, 5 min, 100 mM H2O2, 50 μg/mL heated extract total protein): 972 ppm | PAA (ppm), 5 min ([2]; NaHCO3 5.0 mM, initial pH 6.5, 5 min, 250 mM H2O2, 50 μg/mL heated extract total protein): 1825 ppm | PAA (ppm), 30 min ([2]; NaHCO3 5.0 mM, initial pH 6.5, 30 min, 100 mM H2O2, 50 μg/mL heated extract total protein): 1323 ppm | PAA (ppm), 30 min ([2]; NaHCO3 5.0 mM, initial pH 6.5, 30 min, 250 mM H2O2, 50 μg/mL heated extract total protein): 2222 ppm | PAA (ppm), 1 min ([2]; NaHCO3 10 mM, initial pH 7.0, 1 min, 250 mM H2O2, 50 μg/mL heated extract total protein): 804 ppm | PAA (ppm), 5 min ([2]; NaHCO3 10 mM, initial pH 7.0, 5 min, 250 mM H2O2, 50 μg/mL heated extract total protein): 1951 ppm | PAA (ppm), 30 min ([2]; NaHCO3 10 mM, initial pH 7.0, 30 min, 250 mM H2O2, 50 μg/mL heated extract total protein): 2698 ppm | PAA (ppm), 1 min ([2]; NaHCO3 10 mM, initial pH 8.1, 1 min, 100 mM H2O2, 50 μg/mL heated extract total protein): 407 ppm | PAA (ppm), 5 min ([2]; NaHCO3 10 mM, initial pH 8.1, 5 min, 100 mM H2O2, 50 μg/mL heated extract total protein): 1075 ppm | PAA (ppm), 30 min ([2]; NaHCO3 10 mM, initial pH 8.1, 30 min, 100 mM H2O2, 50 μg/mL heated extract total protein): 1763 ppm | PAA (ppm), 1 min ([2]; NaHCO3 25 mM, initial pH 8.1, 1 min, 100 mM H2O2, 50 μg/mL heated extract total protein): 465 ppm | PAA (ppm), 1 min ([2]; NaHCO3 25 mM, initial pH 8.1, 1 min, 250 mM H2O2, 50 μg/mL heated extract total protein): 848 ppm | PAA (ppm), 5 min ([2]; NaHCO3 25 mM, initial pH 8.1, 5 min, 100 mM H2O2, 50 μg/mL heated extract total protein): 1369 ppm | PAA (ppm), 5 min ([2]; NaHCO3 25 mM, initial pH 8.1, 5 min, 250 mM H2O2, 50 μg/mL heated extract total protein): 2342 ppm | PAA (ppm), 30 min ([2]; NaHCO3 25 mM, initial pH 8.1, 30 min, 100 mM H2O2, 50 μg/mL heated extract total protein): 2217 ppm | PAA (ppm), 30 min ([2]; NaHCO3 25 mM, initial pH 8.1, 30 min, 250 mM H2O2, 50 μg/mL heated extract total protein): 3251 ppm
